Article PMC4076583 (The Journal of Experimental Medicine, 2014)

B1: mouse 4-1BB.Fc, full-length extracellular 4-1BB (CRD1–4, amino acids 24–187) fused to human IgG1 Fc (Fc fusion, UniProt P20334 24-187, looked up)
chain: VQNSCDNCQPGTFCRKYNPVCKSCPPSTFSSIGGQPNCNICRVCAGYFRFKKFCSSTHNAECECIEGFHCLGPQCTRCEKDCRPGQELTKQGCKTCSLGTFNDQNGTGVCRPWTNCSLDGRSVLKTGTTEKDVVCGPPVVSFSPSTTISVTPEGGPGGHSLQVL
B2: human 4-1BB.Fc CRD4 mutant (amino acids 119–186) (Fc fusion, UniProt Q07011 119-186, looked up)
chain: DCCFGTFNDQKRGICRPWTNCSLDGKSVLVNGTKERDVVCGPSPADLSPGASSVTPPAPAREPGHSPQ
B3: mouse 4-1BB.Fc CRD4 mutant (amino acids 118–187) (Fc fusion, UniProt P20334 118-187, looked up)
chain: TCSLGTFNDQNGTGVCRPWTNCSLDGRSVLKTGTTEKDVVCGPPVVSFSPSTTISVTPEGGPGGHSLQVL

What was measured:
[1] = target: recombinant mouse Galectin-9 (mouse, UniProt O08573 1-353); test: SPR
Sequence of recombinant mouse Galectin-9 (O08573 whole entry): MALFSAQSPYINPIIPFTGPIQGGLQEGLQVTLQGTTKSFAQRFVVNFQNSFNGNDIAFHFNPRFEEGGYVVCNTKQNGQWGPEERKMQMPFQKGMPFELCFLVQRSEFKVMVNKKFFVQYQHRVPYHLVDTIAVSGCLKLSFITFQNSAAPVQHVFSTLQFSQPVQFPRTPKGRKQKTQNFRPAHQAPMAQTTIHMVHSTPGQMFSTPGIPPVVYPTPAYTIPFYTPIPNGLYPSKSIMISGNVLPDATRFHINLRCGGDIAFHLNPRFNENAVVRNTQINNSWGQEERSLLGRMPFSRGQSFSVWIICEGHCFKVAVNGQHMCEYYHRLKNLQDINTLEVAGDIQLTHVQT

[2] = target: recombinant human Galectin-9 (human, UniProt O00182 1-355); test: SPR
Sequence of recombinant human Galectin-9 (O00182 whole entry): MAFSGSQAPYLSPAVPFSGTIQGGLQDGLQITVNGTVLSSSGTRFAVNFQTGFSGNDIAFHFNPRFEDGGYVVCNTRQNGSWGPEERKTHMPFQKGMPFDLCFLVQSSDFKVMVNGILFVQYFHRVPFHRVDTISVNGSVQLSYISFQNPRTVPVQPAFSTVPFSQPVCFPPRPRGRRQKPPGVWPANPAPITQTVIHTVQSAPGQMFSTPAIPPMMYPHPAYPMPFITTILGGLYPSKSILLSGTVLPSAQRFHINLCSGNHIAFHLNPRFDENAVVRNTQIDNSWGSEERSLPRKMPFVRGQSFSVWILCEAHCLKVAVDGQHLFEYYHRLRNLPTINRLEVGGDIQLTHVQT

Kd [1] [µM] | Kd [2] [µM] | Binder
~0.011 | – | B1
– | ~0.035 | B2
~0.018 | – | B3
